Test results: PMC8616066

What was measured:
[1] = target: fluorescent tagged HER2 (human) (UniProt P04626); assay: MST; Monolith NT.115; fluorescent tagged HER2, titration of purified GST fusion proteins
[2] = target: eGFP-MUC4β_(ΔEGF2) (human); assay: MST; Monolith NT.115; native fluorescence of the eGFP fusion proteins followed in cell lysate, titration against recombinant HER2-Fc; triplicate with two distinct cell lysates (n = 6)

Substance	Kd [1] [nM]	Kd [2] [nM]
GST-MUC4_(EGF1) (domain or fragment)	75	
recombinant HER2-Fc (from UniProt P04626 23-652) (Fc fusion)		97
GST-MUC4_(EGF2) (domain or fragment)	242	
